The record followed here is patent US20220332804A1 (CSL INNOVATION, published 2022).

Experiment in all cases: SPR; KD relative to WT C2;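 note: biacore SPR at 37 °C, anti-C2 mAbs captured on an anti-human IgG chip, alanine or serine C2 surface mutants tested, KD from 1:1 fit compared with wild-type C2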
(In general: Surface plasmon resonance follows binding to a sensor surface in real time, without labels.)

In experiment [1] the target is T1, human C2 G432A (human, UniProt P06681 21-752).
T1 sequence: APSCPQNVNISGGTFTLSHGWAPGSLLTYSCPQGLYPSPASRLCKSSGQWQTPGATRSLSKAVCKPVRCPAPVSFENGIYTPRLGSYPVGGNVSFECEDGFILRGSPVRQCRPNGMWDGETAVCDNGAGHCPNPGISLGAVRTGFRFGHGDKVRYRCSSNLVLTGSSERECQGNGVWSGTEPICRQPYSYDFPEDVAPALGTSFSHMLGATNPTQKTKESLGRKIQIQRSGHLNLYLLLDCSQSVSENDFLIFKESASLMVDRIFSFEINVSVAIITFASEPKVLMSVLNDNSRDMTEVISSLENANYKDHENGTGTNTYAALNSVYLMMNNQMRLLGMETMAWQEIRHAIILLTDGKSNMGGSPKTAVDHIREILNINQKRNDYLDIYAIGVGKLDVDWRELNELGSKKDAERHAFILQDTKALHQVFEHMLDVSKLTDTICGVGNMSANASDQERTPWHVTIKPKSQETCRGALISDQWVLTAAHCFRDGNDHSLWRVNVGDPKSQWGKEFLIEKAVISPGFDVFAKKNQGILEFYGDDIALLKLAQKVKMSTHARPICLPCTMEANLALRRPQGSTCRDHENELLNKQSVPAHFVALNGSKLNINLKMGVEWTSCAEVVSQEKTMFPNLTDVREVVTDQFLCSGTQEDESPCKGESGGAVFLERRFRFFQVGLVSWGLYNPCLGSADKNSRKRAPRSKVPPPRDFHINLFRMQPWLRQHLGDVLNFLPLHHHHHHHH

The target in experiment [2] is T2, human C2 Y328A (human, UniProt P06681 21-752).
T2 sequence: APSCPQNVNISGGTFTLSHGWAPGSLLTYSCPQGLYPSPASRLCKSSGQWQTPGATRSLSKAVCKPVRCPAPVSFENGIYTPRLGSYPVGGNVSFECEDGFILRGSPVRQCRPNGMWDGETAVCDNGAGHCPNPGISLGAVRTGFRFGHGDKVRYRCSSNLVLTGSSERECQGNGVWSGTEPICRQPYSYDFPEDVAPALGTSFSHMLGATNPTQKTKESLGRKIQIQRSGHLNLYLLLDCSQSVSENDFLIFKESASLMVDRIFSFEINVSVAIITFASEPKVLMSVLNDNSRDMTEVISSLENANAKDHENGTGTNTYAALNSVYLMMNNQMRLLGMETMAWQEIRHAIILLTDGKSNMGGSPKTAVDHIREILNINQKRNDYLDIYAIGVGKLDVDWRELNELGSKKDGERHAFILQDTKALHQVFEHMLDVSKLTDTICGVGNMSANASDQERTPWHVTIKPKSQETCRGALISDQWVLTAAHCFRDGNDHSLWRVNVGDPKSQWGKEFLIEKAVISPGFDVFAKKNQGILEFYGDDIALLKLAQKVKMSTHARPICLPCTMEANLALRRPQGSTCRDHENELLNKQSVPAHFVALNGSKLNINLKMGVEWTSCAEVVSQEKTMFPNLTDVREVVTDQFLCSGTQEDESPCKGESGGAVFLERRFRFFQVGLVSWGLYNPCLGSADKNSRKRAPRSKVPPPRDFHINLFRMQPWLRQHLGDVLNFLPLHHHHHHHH

Experiment [3] addresses T3, human C2 N327A (human, UniProt P06681 21-752).
T3 sequence: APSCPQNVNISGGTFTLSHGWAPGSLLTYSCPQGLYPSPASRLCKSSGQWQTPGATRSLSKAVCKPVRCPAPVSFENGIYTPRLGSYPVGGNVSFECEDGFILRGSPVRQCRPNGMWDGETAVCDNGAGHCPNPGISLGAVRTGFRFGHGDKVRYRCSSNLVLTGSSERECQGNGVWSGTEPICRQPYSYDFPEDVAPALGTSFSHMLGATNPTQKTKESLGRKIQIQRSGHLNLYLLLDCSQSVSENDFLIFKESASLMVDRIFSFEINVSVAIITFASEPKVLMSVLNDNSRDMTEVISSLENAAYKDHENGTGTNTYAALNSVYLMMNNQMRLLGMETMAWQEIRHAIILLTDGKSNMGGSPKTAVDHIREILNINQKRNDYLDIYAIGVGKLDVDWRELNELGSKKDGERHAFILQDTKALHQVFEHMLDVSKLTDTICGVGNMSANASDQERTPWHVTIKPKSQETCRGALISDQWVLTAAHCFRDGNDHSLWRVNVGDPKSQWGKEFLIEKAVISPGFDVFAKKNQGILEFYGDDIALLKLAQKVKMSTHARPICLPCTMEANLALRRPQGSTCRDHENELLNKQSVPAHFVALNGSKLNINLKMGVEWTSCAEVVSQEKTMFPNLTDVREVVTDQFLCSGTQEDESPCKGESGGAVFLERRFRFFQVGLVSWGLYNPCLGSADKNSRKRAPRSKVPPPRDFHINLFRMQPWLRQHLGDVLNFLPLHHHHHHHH

The target of experiment [4] is T4, human C2 T442A (human, UniProt P06681 21-752).
T4 sequence: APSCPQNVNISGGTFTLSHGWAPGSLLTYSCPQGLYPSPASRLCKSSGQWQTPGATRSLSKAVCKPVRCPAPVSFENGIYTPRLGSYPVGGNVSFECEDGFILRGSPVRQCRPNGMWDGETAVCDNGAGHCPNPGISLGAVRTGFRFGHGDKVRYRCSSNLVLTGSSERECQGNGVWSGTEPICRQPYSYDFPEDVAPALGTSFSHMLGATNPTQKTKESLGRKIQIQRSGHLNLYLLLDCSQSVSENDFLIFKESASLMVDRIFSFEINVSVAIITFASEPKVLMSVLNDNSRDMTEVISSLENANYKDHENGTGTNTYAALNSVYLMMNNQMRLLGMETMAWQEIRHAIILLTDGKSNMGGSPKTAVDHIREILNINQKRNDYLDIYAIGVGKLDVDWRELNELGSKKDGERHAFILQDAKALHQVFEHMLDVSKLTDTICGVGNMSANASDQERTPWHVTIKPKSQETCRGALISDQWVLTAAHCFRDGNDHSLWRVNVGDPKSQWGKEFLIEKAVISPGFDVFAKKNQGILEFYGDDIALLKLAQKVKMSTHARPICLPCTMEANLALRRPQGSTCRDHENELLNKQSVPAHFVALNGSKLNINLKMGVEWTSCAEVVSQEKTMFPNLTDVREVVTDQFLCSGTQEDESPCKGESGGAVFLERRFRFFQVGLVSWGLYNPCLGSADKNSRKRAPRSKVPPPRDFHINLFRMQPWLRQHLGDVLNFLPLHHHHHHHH

B1: RF16-214 (antibody, V domains shown)
VH: EVQLLESGGGLVQPGGSLRLSCAASGFTFSWYQMMWVRQAPGKGLEWVSRIYPSGGGTAYADSVKGRFTISRDNSKNTLYLQMNSLRAEDTAVYYCARDAGYGDNWGQGTLVTVSS
VL: QSALTQPPSVSVSPGQTASITCSGDKLGEKYASWYQQKAGQSPVMVIYQDRKRPSGIPERFSGSNSGNTATLTISGTQAMDEADYYCQAWDTRAVVFGGGTKLTVLG
B1: the Fold diff is 1 fold in experiment [1], 6 fold in experiment [2], 7 fold in experiment [3] and 2 fold in experiment [4].
